Reference: doi:10.1101/2024.06.05.597643, “Identification and characterization of a human MORC2 DNA binding region that is required for gene silencing” (bioRxiv, 2024)

Experiments:
[1] = molecular target: T1, MORC2 wild type, dephosphorylated (Homo sapiens) (UniProt Q9Y6X9); assay: fluorescence anisotropy; settings: FA: 50 mM NaCl, 3 mM MgCl2, 20 mM Na-HEPES pH 7.4, 1 mM TCEP, 10% glycerol, 0.025 mM ZnCl2, 50 ug/ml BSA, 1 nM nucleic acid, room temperature
T1 sequence: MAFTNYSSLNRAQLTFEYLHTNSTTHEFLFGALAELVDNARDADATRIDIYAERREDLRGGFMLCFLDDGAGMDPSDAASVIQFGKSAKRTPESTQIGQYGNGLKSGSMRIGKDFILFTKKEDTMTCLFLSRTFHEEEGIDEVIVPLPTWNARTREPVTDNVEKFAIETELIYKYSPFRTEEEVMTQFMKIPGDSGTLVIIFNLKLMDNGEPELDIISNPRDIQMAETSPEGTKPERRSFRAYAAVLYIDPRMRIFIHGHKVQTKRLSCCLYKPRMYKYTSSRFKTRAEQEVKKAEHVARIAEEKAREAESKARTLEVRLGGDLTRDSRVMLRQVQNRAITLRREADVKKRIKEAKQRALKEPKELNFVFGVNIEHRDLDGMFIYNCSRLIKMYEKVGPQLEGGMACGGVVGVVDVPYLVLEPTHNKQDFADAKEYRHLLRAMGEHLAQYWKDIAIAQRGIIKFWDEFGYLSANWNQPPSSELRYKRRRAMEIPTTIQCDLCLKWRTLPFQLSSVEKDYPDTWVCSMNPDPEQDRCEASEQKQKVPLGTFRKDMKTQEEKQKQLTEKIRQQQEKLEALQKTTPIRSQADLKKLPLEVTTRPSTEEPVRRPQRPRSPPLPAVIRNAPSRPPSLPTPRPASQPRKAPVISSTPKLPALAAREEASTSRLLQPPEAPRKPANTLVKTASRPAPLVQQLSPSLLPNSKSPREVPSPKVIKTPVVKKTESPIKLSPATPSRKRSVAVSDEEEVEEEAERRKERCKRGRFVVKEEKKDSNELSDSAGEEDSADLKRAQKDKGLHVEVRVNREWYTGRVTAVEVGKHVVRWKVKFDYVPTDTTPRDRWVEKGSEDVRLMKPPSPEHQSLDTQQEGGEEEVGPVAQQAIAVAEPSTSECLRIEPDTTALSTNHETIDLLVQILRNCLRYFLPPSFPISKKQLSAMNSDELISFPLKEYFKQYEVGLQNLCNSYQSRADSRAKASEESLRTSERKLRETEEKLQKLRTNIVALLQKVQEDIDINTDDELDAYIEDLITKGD

[2] = molecular target: the molecule itself; assay: SEC-MALS; full-length MORC2 2 mg/mL, 150 mM NaCl, 3 mM MgCl2, 20 mM Na-HEPES pH 7.4, 0.5 mM TCEP, 1.5% glycerol, 0.025 mM ZnCl2, without AMP-PNP; Wyatt 030 column
[3] = molecular target: the molecule itself; assay: SEC-MALS; coiled coil 3 1.5 mg/mL, 150 mM NaCl, 3 mM MgCl2, 20 mM Na-HEPES pH 7.4, 0.5 mM TCEP, 1.5% glycerol, 0.025 mM ZnCl2; Wyatt 010 column

## ATATCGATGTATATATCTGACACGTGCCTGGAGACTAGGGAGTAATCCCCTTGGCGGTTAAAACGCGGGGGACAGCGCGTACGTGCGTTTAAGCGGTGCTAGAGCTGTCTACGACCAATTGAGCGGCCTCGGCACCGGGATTCTGATAT (double strand) [Nucleosome on 2-601-2 DNA]
[1]
  Kd: 16 nM

B1: full-length human MORC2 (natural protein, UniProt Q9Y6X9 1-1032, looked up)
chain: MAFTNYSSLNRAQLTFEYLHTNSTTHEFLFGALAELVDNARDADATRIDIYAERREDLRGGFMLCFLDDGAGMDPSDAASVIQFGKSAKRTPESTQIGQYGNGLKSGSMRIGKDFILFTKKEDTMTCLFLSRTFHEEEGIDEVIVPLPTWNARTREPVTDNVEKFAIETELIYKYSPFRTEEEVMTQFMKIPGDSGTLVIIFNLKLMDNGEPELDIISNPRDIQMAETSPEGTKPERRSFRAYAAVLYIDPRMRIFIHGHKVQTKRLSCCLYKPRMYKYTSSRFKTRAEQEVKKAEHVARIAEEKAREAESKARTLEVRLGGDLTRDSRVMLRQVQNRAITLRREADVKKRIKEAKQRALKEPKELNFVFGVNIEHRDLDGMFIYNCSRLIKMYEKVGPQLEGGMACGGVVGVVDVPYLVLEPTHNKQDFADAKEYRHLLRAMGEHLAQYWKDIAIAQRGIIKFWDEFGYLSANWNQPPSSELRYKRRRAMEIPTTIQCDLCLKWRTLPFQLSSVEKDYPDTWVCSMNPDPEQDRCEASEQKQKVPLGTFRKDMKTQEEKQKQLTEKIRQQQEKLEALQKTTPIRSQADLKKLPLEVTTRPSTEEPVRRPQRPRSPPLPAVIRNAPSRPPSLPTPRPASQPRKAPVISSTPKLPALAAREEASTSRLLQPPEAPRKPANTLVKTASRPAPLVQQLSPSLLPNSKSPREVPSPKVIKTPVVKKTESPIKLSPATPSRKRSVAVSDEEEVEEEAERRKERCKRGRFVVKEEKKDSNELSDSAGEEDSADLKRAQKDKGLHVEVRVNREWYTGRVTAVEVGKHVVRWKVKFDYVPTDTTPRDRWVEKGSEDVRLMKPPSPEHQSLDTQQEGGEEEVGPVAQQAIAVAEPSTSECLRIEPDTTALSTNHETIDLLVQILRNCLRYFLPPSFPISKKQLSAMNSDELISFPLKEYFKQYEVGLQNLCNSYQSRADSRAKASEESLRTSERKLRETEEKLQKLRTNIVALLQKVQEDIDINTDDELDAYIEDLITKGD
notes: Cloned into both 438-B (N-terminal His6-TEV) and 438-C (N-terminal His6-MBP-TEV); the tag was removed with TEV protease; also called wildtype MORC2; dephosphorylated MORC2; not shown: His6, N-terminal, cleaved
[2]
  stoichiometry N: 2

B2: MORC2 coiled coil 3 (domain or fragment, human, UniProt Q9Y6X9 900-1032, looked up)
chain: ALSTNHETIDLLVQILRNCLRYFLPPSFPISKKQLSAMNSDELISFPLKEYFKQYEVGLQNLCNSYQSRADSRAKASEESLRTSERKLRETEEKLQKLRTNIVALLQKVQEDIDINTDDELDAYIEDLITKGD
notes: also called CC3; source: E. coli BL21 (DE3) RIL, purified (HisTrap, TEV cleavage, S75 SEC); not shown: His6, N-terminal, cleaved
[3]
  stoichiometry N: 2
